Data on three molecules can be found in JP2004000045A (dated 2004).

In assay [1] the target is T1, ヒト前立腺特異的膜抗原(PSMA) (human, UniProt Q04609 1-750).
T1 construct: whole, on cells; also called PSMA; ヒトPSMA
In words: flow cytometry, 10 μg/mL, Namalwa KJM-1 cells transfected with PSMA cDNA (pAMoPSMA). In general terms: A flow cytometer gives signals particle by particle.

Assay [2] addresses T1, ヒト前立腺特異的膜抗原(PSMA). The assay can be described thus: flow cytometry, 10 μg/mL, LNCaP cells.

T1 sequence (Q04609 whole entry): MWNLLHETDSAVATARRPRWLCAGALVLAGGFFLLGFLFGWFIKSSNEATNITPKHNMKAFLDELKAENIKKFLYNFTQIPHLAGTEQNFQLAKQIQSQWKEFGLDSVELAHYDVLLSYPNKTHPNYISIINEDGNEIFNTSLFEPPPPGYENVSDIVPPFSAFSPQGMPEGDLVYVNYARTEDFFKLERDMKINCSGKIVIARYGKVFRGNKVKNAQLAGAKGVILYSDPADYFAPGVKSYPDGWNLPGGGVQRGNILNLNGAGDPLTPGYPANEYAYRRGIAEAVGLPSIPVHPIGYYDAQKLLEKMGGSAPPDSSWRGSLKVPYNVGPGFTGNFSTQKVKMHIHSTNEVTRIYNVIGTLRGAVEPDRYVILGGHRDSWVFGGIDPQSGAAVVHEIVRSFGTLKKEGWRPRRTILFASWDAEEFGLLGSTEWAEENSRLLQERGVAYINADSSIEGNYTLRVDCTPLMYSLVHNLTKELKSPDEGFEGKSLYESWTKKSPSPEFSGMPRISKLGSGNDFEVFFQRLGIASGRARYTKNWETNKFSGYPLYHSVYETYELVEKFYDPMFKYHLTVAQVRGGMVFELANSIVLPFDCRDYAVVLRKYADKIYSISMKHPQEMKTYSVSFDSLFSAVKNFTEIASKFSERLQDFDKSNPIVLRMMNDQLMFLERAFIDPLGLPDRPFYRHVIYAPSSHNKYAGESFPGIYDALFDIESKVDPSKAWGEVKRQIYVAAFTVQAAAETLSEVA

B1: 抗PSMAマウス抗体2C9 (antibody, V domains shown)
VH: DVHLQESGPGLVKPSQSLSLTCTVTGYSITSDYAWNWIRQFPGNKLEWMGYISFSGSTSYNPSLKSRISVTRDTSKNQFFLQLNSVTTEDTATYYCARWNYYGSSHVWFAYWGQGTLVTVSA
VL: DIKMTQSPSSMYASLGERVTITCKASQDIYSYLIWFQQKPGKSPKTLIYRANRLVDGVPSRFSGSGSGQDYSLTISSLEYEDMGIYYCLQYDEFATFGSGTKLEMKR
notes: Whole mouse antibody from hybridoma; also called マウスモノクローナル抗体2C9; 2C9
In the case of B1, the binding result in assay [1] is on record as “binds”.

B2: アドリアマイシン結合抗PSMAキメラ抗体ADM−KM2777 (antibody, human IgG1, V domains shown)
VH: DVHLQESGPGLVKPSQSLSLTCTVTGYSITSDYAWNWIRQFPGNKLEWMGYISFSGSTSYNPSLKSRISVTRDTSKNQFFLQLNSVTTEDTATYYCARWNYYGSSHVWFAYWGQGTLVTVSA
VL: DIKMTQSPSSMYASLGERVTITCKASQDIYSYLIWFQQKPGKSPKTLIYRANRLVDGVPSRFSGSGSGQDYSLTISSLEYEDMGIYYCLQYDEFATFGSGTKLEMKR
modifications: as for the heavy chain: linker on amino groups, sites not stated; adriamycin-(Gly-Pro)-PEG linker (PEG average MW about 2,000) coupled through NHS ester to amino groups of the antibody; on average 2.5 ADM per antibody molecule; sites not stated
notes: also called ADM-KM2777
For B2, the binding result in assay [2] is recorded as “binds”.

B3: 抗PSMAキメラ抗体KM2777 (antibody, human IgG1, V domains shown)
VH: DVHLQESGPGLVKPSQSLSLTCTVTGYSITSDYAWNWIRQFPGNKLEWMGYISFSGSTSYNPSLKSRISVTRDTSKNQFFLQLNSVTTEDTATYYCARWNYYGSSHVWFAYWGQGTLVTVSA
VL: DIKMTQSPSSMYASLGERVTITCKASQDIYSYLIWFQQKPGKSPKTLIYRANRLVDGVPSRFSGSGSGQDYSLTISSLEYEDMGIYYCLQYDEFATFGSGTKLEMKR
notes: Human-type chimeric antibody: 2C9 VH joined to human IgG1 CH and 2C9 VL joined to human kappa CL (vector pKANTEX93), produced in YB2/0 cells; also called KM2777; 抗PSMAヒト型キメラ抗体
Consider B3, for which the binding result in assay [2] is recorded as “binds”.
